Patent US7442378B2, “Attenuated circovirus” (The University of Melbourne, priority 2001, dated 2008)
Entries after “also recorded” stand apart in the source; their conditions may differ.

What was measured:
[1] = tested on: T1, phosphopeptide substrate H-Glu-Asn-Asp-Tyr(PO3H2)-Ile-Asn-Ala-Ser-Leu-OH
T1 sequence: ENDYINASL

[2] = known PTPases, comparison values; cited from earlier work
CAV VP2-GST PTPase = assay: Sodium orthovanadate inhibition of PTPase activity; type: biochemical, Chicken anaemia virus
Experimental: Stock 1 mM […] was made in distilled water and adjusted to pH 10 with sulphuric acid. Once dissolved, stock […] was added to AB and TB buffer at a ratio of 1:1:1 and adjusted to pH 7. Inhibition studies were conducted with 0.1 mM, 0.01 mM and 0.001 mM of sodium orthovanadate. All other reaction conditions were as described above. Assays were with 10 nmol substrate and 9 μg CAV VP2-GST and were in triplicate for each concentration of inhibitor.

[3] = molecular target: T2, phosphopeptide substrate H-Glu-Asn-Asp-Tyr(PO3H2)-Ile-Asn-Ala-Ser-Leu-OH
T2 chain: ENDYINASL

[4] = tested on: peptide substrate ENDY(Pi)INASL; assay: Enzyme pH optimum of CAV VP2-GST PTPase; type: biochemical
Experimental: Triplicate reactions were set up at pH 4, pH 5, pH 6, pH 7, pH 8 and pH 9. Assays were with 10 nmol substrate and 9 μg CAV VP2-GST and all other reaction conditions were as described above. Prior to addition of the malachite green reagent the pH was neutralised to pH 7 with either sulphuric acid or sodium hydroxide.

[5] = tested on: peptide substrate ENDY(Pi)INASL; type: biochemical

TLMV ORF2-GST fusion protein
PTPase activity (steady state) [1]: The steady state activity was equivalent to that demonstrated for CAV VP2

PTP1B: low Mr PTPase cited for comparison [reference compound]
Vmax [2]: 20 000 U/mg min

[Na+].[Na+].[Na+].[O]=[V]([O-])([O-])[O-] [sodium orthovanadate]
Inhibition of VP2-GST PTPase activity (CAV VP2-GST PTPase): specifically inhibited; also recorded: completely inhibited | Orthovanadate concentration giving maximal inhibition of CAV VP2 activity (as low as) (CAV VP2-GST PTPase): 0.001 mM

B1: CAV VP2-GST fusion protein (protein)
chain: MHGNGGQPAAGGSESALSREGQPGPSGAAQGQVISNERSPRRYSTRTINGVQATNKFTAVGNPSLQRDPDWYRWNYSHSIAVWLRECSRSHAKICNCGQFRKHWFQECAGLEDRSTQASLEEAILRPLRVQGKRAKRKLDYHYSQPTPNRKKVYKTVRWQDELADREADFTPSEEDGGTTSSDFDEDINFDIGGDSGIVDELLGRPFTTPAPVRIV
Km (PTPase assay, malachite green, Lineweaver-Burk plot) [3]: Km to be 16.95 µM | Vmax (PTPase assay, malachite green, Lineweaver-Burk plot) [3]: Vmax was estimated to be 14 280 U/mg min | Vo with 0.001 mM orthovanadate, 10 nmol substrate [3]: 0.002 | Vo with 0.01 mM orthovanadate, 10 nmol substrate [3]: 0 | Vo with 0.1 mM orthovanadate, 10 nmol substrate [3]: 0 | Vo without orthovanadate, 10 nmol substrate [3]: 5.61 | mean Vo (nmol) at pH 4, 10 nmol substrate [3]: 1.75 nmol | mean Vo (nmol) at pH 5, 10 nmol substrate [3]: 1.47 nmol | mean Vo (nmol) at pH 6, 10 nmol substrate [3]: 5.64 nmol | mean Vo (nmol) at pH 7, 10 nmol substrate [3]: 5.61 nmol | mean Vo (nmol) at pH 8, 10 nmol substrate [3]: 1.83 nmol | mean Vo (nmol) at pH 9, 10 nmol substrate [3]: 0 nmol

B2: VP2-GST: CAV viral protein 2 produced as fusion with glutathione S-transferase in E. coli (protein)
chain: MHGNGGQPAAGGSESALSREGQPGPSGAAQGQVISNERSPRRYSTRTINGVQATNKFTAVGNPSLQRDPDWYRWNYSHSIAVWLRECSRSHAKICNCGQFRKHWFQECAGLEDRSTQASLEEAILRPLRVQGKRAKRKLDYHYSQPTPNRKKVYKTVRWQDELADREADFTPSEEDGGTTSSDFDEDINFDIGGDSGIVDELLGRPFTTPAPVRIV
modifications: left off: a dimerising Fc or GST
notes: CAV viral protein 2 produced as fusion with glutathione S-transferase in E. coli
mean Vo, PTPase activity ([4]; pH 4, S 10 nmol): 1.746 nmol | mean Vo, PTPase activity ([4]; pH 5, S 10 nmol): 1.474 nmol | mean Vo, PTPase activity ([4]; pH 6, S 10 nmol): 5.636 nmol | mean Vo, PTPase activity ([4]; pH 7, S 10 nmol): 5.612 nmol | mean Vo, PTPase activity ([4]; pH 8, S 10 nmol): 1.829 nmol | mean Vo, PTPase activity ([4]; pH 9, S 10 nmol): 0.000 nmol | pH of optimal PTPase activity ([4]; reactions at pH 4 to pH 9, listed as CAV VP2): 6-7 | 1/Vmax ([5]; linear regression of double reciprocal plot): 0.060 | Vmax ([5]; substrate ENDY(Pi)INASL, Lineweaver-Burk plot, Vo at 1 min): 14 280 U/mg min

B3: CD45: high Mr PTPase from human spleen cited for comparison (protein, UniProt P08575 26-1306, looked up)
Receptor-type …: QSPTPSPTGLTTAKMPSVPLSSDPLPTHTTAFSPASTFERENDFSETTTSLSPDNTSTQVSPDSLDNASAFNTTGVSSVQTPHLPTHADSQTPSAGTDTQTFSGSAANAKLNPTPGSNAISDVPGERSTASTFPTDPVSPLTTTLSLAHHSSAALPARTSNTTITANTSDAYLNASETTTLSPSGSAVISTTTIATTPSKPTCDEKYANITVDYLYNKETKLFTAKLNVNENVECGNNTCTNNEVHNLTECKNASVSISHNSCTAPDKTLILDVPPGVEKFQLHDCTQVEKADTTICLKWKNIETFTCDTQNITYRFQCGNMIFDNKEIKLENLEPEHEYKCDSEILYNNHKFTNASKIIKTDFGSPGEPQIIFCRSEAAHQGVITWNPPQRSFHNFTLCYIKETEKDCLNLDKNLIKYDLQNLKPYTKYVLSLHAYIIAKVQRNGSAAMCHFTTKSAPPSQVWNMTVSMTSDNSMHVKCRPPRDRNGPHERYHLEVEAGNTLVRNESHKNCDFRVKDLQYSTDYTFKAYFHNGDYPGEPFILHHSTSYNSKALIAFLAFLIIVTSIALLVVLYKIYDLHKKRSCNLDEQQELVERDDEKQLMNVEPIHADILLETYKRKIADEGRLFLAEFQSIPRVFSKFPIKEARKPFNQNKNRYVDILPYDYNRVELSEINGDAGSNYINASYIDGFKEPRKYIAAQGPRDETVDDFWRMIWEQKATVIVMVTRCEEGNRNKCAEYWPSMEEGTRAFGDVVVKINQHKRCPDYIIQKLNIVNKKEKATGREVTHIQFTSWPDHGVPEDPHLLLKLRRRVNAFSNFFSGPIVVHCSAGVGRTGTYIGIDAMLEGLEAENKVDVYGYVVKLRRQRCLMVQVEAQYILIHQALVEYNQFGETEVNLSELHPYLHNMKKRDPPSEPSPLEAEFQRLPSYRSWRTQHIGNQEENKSKNRNSNVIPYDYNRVPLKHELEMSKESEHDSDESSDDDSDSEEPSKYINASFIMSYWKPEVMIAAQGPLKETIGDFWQMIFQRKVKVIVMLTELKHGDQEICAQYWGEGKQTYGDIEVDLKDTDKSSTYTLRVFELRHSKRKDSRTVYQYQYTNWSVEQLPAEPKELISMIQVVKQKLPQKNSSEGNKHHKSTPLLIHCRDGSQQTGIFCALLNLLESAETEEVVDIFQVVKALRKARPGMVSTFEQYQFLYDVIASTYPAQNGQVKKNNHQEDKIEFDNEVDKVKQDANCVNPLGAPEKLPEAKEQAEGSEPTSGTEGPEHSVNGPASPALNQGS
Vmax [2]: 1 000 U/mg min
